B2: FITC labeled Clr3 (enzyme)
chain: MLASNSDGASTSVKPSDDAVNTVTPWSILLTNNKPMSGSENTLNNESHEMSQILKKSGLCYDPRMRFHATLSEVDDHPEDPRRVLRVFEAIKKAGYVSNVPSPSDVFLRIPAREATLEELLQVHSQEMYDRVTNTEKMSHEDLANLEKISDSLYYNNESAFCARLACGSAIETCTAVVTGQVKNAFAVVRPPGHHAEPHKPGGFCLFNNVSVTARSMLQRFPDKIKRVLIVDWDIHHGNGTQMAFYDDPNVLYVSLHRYENGRFYPGTNYGCAENCGEGPGLGRTVNIPWSCAGMGDGDYIYAFQRVVMPVAYEFDPDLVIVSCGFDAAAGDHIGQFLLTPAAYAHMTQMLMGLADGKVFISLEGGYNLDSISTSALAVAQSLLGIPPGRLHTTYACPQAVATINHVTKIQSQYWRCMRPKHFDANPKDAHVDRLHDVIRTYQAKKLFEDWKITNMPILRDSVSNVFNNQVLCSSNFFQKDNLLVIVHESPRVLGNGTSETNVLNLNDSLLVDPVSLYVEWAMQQDWGLIDINIPEVVTDGENAPVDILSEVKELCLYVWDNYVELSISKNIFFIGGGKAVHGLVNLASSRNVSDRVKCMVNFLGTEPLVGLKTASEEDLPTWYYRHSLVFVSSSNECWKKAKRAKRRYGRLMQSEHTETSDMMEQHYRAVTQYLLHLLQKARPTSQ
modifications: FITC label

Columns and labels:
FITC labeled Clr3 = target: B2; experiment: MST
[1] = target: Sad1_(1-169)-H2AB complex (S. pombe, UniProt Q09825 1-169; P04913 32-126; P04909 15-108); experiment: MST; mixture of Sad1 and H2AB
Sad1_(1-169)-5R = Sad1_(1-169)-5R (S. pombe, UniProt Q09825 1-169, D114R | E117R | F118R | E121R | E122R); experiment: MST; mixture of Sad1-5R and H2AB
H2AB with H2A R79E = H2AB with H2A R79E (S. pombe, UniProt P04913 32-126; P04909 15-108, R79E); experiment: ITC
H2AB with H2B Y42R = H2AB with H2B Y42R (S. pombe, UniProt P04913 32-126; P04909 15-108, Y42R); experiment: ITC
[2] = target: S. pombe H2AB fusion protein (H2B_(32-126)-H2A_(15-108)) (S. pombe, UniProt P04913 32-126; P04909 15-108); experiment: ITC

B1: Sad1_(1-169) (domain or fragment)
chain: MFTNTPVGGKRERQNGAHPAWSTLGANSAQIHQNTADLASKMHKLRYTKIRSPPTRVSIESITPKQRFPAPNFEQAYHSNIRYEQEESDNEEFENVVKNGHEASTNVFYESDGDDEEFVNEEYENSIDEESDDEGYSLNEDTTATNASFRYPMNQRSTRKSQFYSSKFK
With B1 the Kd (FITC labeled Clr3) was 42.9 µM.

For B2, the Kd [1] was 10.3 µM and the Kd (Sad1_(1-169)-5R) was 47.2 µM.

B3: Sad1_(60-169) (domain or fragment)
chain: ESITPKQRFPAPNFEQAYHSNIRYEQEESDNEEFENVVKNGHEASTNVFYESDGDDEEFVNEEYENSIDEESDDEGYSLNEDTTATNASFRYPMNQRSTRKSQFYSSKFK
Binder B3 has a Kd (H2AB with H2A R79E) of 90.1 µM, a Kd (H2AB with H2B Y42R) of 44.8 µM and a Kd [2] of 9.1 µM.

B4: Sad1_(60-169) with charge-reverse mutations of D114 and E117 (domain or fragment)
chain: ESITPKQRFPAPNFEQAYHSNIRYEQEESDNEEFENVVKNGHEASTNVFYESDGRDERFVNEEYENSIDEESDDEGYSLNEDTTATNASFRYPMNQRSTRKSQFYSSKFK
B4 showed a Kd [2] of 73.5 µM.

B5: Sad1_(60-169) F118R (domain or fragment)
chain: ESITPKQRFPAPNFEQAYHSNIRYEQEESDNEEFENVVKNGHEASTNVFYESDGDDEERVNEEYENSIDEESDDEGYSLNEDTTATNASFRYPMNQRSTRKSQFYSSKFK
B5 was tested, and the Kd [2] was > 200 µM.

From paper PMC11109203 (2024)
